Measured values published in patent US8663912B2, “Fluorogenic substrate for ADAMTS13” (Washington University, priority 2011, dated 2014).
* marks the point of attachment. X1 = CC1(C)C(/C=C/C2=C(Cl)C(=C/C=C3/N(CCCCCC(=O)*)c4ccc5cc(S(=O)(=O)O)ccc5c4C3(C)C)/CCC2)=[N+](CCCS(=O)(=O)[O-])c2ccc(N(CCCS(=O)(=O)O)CCCS(=O)(=O)O)cc21; X2 = CC(C)(C)c1cc(/C=C/C=C2\N(CCCS(=O)(=O)O)c3ccc(S(=O)(=O)O)cc3C2(C)CCCC(=O)CCN2C(=O)CC(*)C2=O)c2ccc(N(CCCS(=O)(=O)[O-])CCCS(=O)(=O)O)cc2[o+]1

Legend:
[1] = Stability and pH dependence of fluorescence of FRETS-rVWF71; format: physicochemical
Procedure: In these experiments, DyLight 633 maleimide (Thermo Scientific, Waltham, Mass.) 1 mg/100 μL in dimethyl sulfoxide (DMSO) was added dropwise with stirring to peptide VWF71 (10 mg) in ≦2 mL of 100 mM sodium phosphate, pH 7.1, in the dark, and stirred overnight at room temperature. The product DyLight 633-rVWF71 was purified by HPLC on C18 using the TEAA/acetonitrile solvent system as described for the purification of VWF71. DyLight 633-rVWF71 was lyophilized and desalted on a small column of PD-10 in ≦2 mL of 100 mM sodium phosphate, pH 7.9. IRDye QC-1 N-hydroxysuccinimide ester 0.5 mg in 100 μL DMSO was added dropwise with stirring and the solution was stirred overnight at room temperature protected from light. The product FRETS-rVWF71 was purified by reverse phase HPLC, lyophilized, dissolved in ≦0.5 mL of deionized water and applied onto a column (7×230 mm) of Amberlite IR120 sodium form. FRETS-rVWF71 product was eluted with deionized water and lyophilized or concentrated by ultrafiltration to ≧250 μM. The concentration was verified by amino acid analysis (The Protein Chemistry Laboratory, Texas A&M University).

ADAMTS13 [2] = target: T1, ADAMTS13 (Homo sapiens, UniProt Q76LX8); assay: ADAMTS13 inhibitor titer assay with FRETS-rVWF71 substrate; format: biochemical; parameters: from tissue; host or cells: human plasma or serum (pooled normal plasma, healthy donors, TTP patients); conditions: TTP patients with detectable inhibitor; printed 1.4-fold to >5-fold
T1 sequence (Q76LX8 75-1427): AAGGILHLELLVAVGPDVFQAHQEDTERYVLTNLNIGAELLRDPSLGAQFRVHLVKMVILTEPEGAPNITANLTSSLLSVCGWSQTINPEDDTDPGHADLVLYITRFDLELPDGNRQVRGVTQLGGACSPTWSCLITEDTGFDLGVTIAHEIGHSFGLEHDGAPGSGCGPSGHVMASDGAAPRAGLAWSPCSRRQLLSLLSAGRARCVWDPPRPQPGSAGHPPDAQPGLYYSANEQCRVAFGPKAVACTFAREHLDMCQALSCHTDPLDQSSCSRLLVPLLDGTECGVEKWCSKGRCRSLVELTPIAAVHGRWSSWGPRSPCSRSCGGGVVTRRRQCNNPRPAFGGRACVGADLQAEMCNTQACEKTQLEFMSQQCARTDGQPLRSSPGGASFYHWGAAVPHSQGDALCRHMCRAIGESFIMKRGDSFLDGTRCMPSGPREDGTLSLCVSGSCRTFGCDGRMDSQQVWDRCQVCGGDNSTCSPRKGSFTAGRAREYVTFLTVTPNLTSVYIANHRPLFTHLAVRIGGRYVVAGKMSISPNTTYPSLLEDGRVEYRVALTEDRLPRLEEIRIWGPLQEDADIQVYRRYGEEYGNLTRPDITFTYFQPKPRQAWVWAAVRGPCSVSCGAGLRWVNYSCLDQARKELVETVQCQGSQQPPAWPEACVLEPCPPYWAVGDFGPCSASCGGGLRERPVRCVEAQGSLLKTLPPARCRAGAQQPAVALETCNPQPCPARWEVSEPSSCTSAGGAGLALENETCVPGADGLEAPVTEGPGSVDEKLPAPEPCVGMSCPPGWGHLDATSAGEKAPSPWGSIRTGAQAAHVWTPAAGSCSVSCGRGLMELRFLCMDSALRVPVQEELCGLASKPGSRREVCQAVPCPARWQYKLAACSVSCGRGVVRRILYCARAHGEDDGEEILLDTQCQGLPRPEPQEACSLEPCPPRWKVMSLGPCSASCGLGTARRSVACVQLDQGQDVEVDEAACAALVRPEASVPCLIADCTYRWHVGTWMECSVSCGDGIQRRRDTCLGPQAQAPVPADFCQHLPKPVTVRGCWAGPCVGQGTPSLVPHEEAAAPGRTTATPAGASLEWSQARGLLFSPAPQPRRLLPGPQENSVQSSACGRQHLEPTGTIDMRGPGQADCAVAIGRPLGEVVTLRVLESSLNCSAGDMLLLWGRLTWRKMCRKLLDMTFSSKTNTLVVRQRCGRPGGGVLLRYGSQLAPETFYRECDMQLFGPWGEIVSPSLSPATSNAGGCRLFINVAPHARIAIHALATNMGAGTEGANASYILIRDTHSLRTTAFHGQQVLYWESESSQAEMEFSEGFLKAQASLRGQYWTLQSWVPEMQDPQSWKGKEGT
Procedure: Plasma samples with ADAMTS13 protease activity <10% were tested for the presence of an ADAMTS13 inhibitor. Plasma samples were serially diluted two-fold with assay buffer (50 mM HEPES, pH 7.4, 150 mM NaCl, 10 mM CaCl2, and 0.05% Tween-20) to yield 8 dilutions. In duplicate, PNP (50 μL) was mixed with an equal volume (50 μL) of undiluted test plasma and each serially diluted sample. Control conditions included PNP mixed with an equal volume of cleavage buffer. The microplate containing the samples was sealed with adhesive film (Sealplate, Excel Scientific, Victorville, Calif.) and incubated at 37° C. for 1 h. Reaction was initiated by addition of 100 μL of assay buffer containing 2 μM FRETS-rVWF71. Fluorescence emission was monitored and initial reaction rates were determined.
The inhibitor titer was determined by fitting the initial reaction rates to a four parameter logistic model or sigmoidal dose response equation by nonlinear regression (Prism): Rate(D)=[…]/(1+10^((log T−log D)*H)) […]
A fixed amount of ADAMTS13 in PNP (100 μL) was preincubated with serially diluted plasma samples and assayed for ADAMTS13 activity. Reaction rates were analyzed according to a model for competitive sigmoidal dose-response inhibition to obtain the dilution of plasma at which ADAMTS13 activity is decreased by 50%, and the inverse of the dilution is the inhibitor titer (FIG. 7C). […]

ADAMTS13 [3] = target: T1, ADAMTS13; assay: Effect of bilirubin and hemoglobin on FRETS-rVWF71 ADAMTS13 assays; format: biochemical; parameters: FRETS-rVWF71 cleavage by plasma ADAMTS13 (50 μL) was assessed in 200 μL reactions; from tissue; host or cells: human plasma or serum (pooled normal plasma, healthy donors, TTP patients); conditions: >20 mg/dL (250 μM) conjugated bilirubin

## X1-GQAPNLVYMVTGC(X2)PASDEIRRLPGDIQVVPIGVGPNANVQELERIGWPNAPILIQDFETLPREAPDLVLQR [FRETS-rVWF71]
[1]; excitation 635 nm, uncleaved and fully cleaved substrate, between pH 5 and pH 10
  variation of fluorescence emission at 660 nm with pH: < 7%
[1]; sodium salt
  stability of final product: stable
[1]; working stocks at −20° C. thawed and refrozen repeatedly over several months
  stability on storage: without any change in stability or chemical properties
ADAMTS13 [2]
  inhibitor titers higher than with FRETS-VWF73: ≥ 1.4 fold
ADAMTS13 [3]
  sensitivity of assay to conjugated bilirubin: insensitive
